# The RNAGym collection of RNA variant scans (doi:10.1073/pnas.2313332121)
# B1: TPR t1 (parent)
# chain: GACCAAUCUGCCCUCAGAGCUCGAGAACAUCUUCGGAUGCAGAGGAGGCAGGCUUCGGUGGCGCGAUAGCGCCAACGUCCUCAACCUCCAAUGCAUCCCACCACAUGAUGAUGCCUGAAGAGCCUUGGUUUUUUG
# Variants of: B1
# Assay: polymerase ribozyme fitness, log enrichment relative to wild type (log ratio); higher = more active; in vitro selection for triplet polymerase activity
# How it was run: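 Each subunit of a heterodimeric triplet polymerase ribozyme was mutagenized into a library by PCR, transcribed, and subjected to one round of in vitro selection, run in triplicate. Libraries were annealed with a biotinylated primer, the partner subunit and triplets, incubated frozen at −7 °C, and extended constructs were gel-excised, captured on streptavidin beads and recovered by RT-PCR. Input and output libraries were sequenced on Illumina, keeping genotypes with ≥10 input reads and ≥1 read per output. Fitness is log base 2 of genotype enrichment divided by wild-type enrichment, from inverse-variance-weighted replicate averages.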
row,Variant,polymerase ribozyme fitness (log ratio)
1,C12A C15G C101U,-3.16
2,C11G C15U G25C A111C A118G,-6.56
3,C12A A26U A41C C82A A95G C101A G120A G127A,-5.86
4,C11U G36A G63U,-2.37
5,C11U C89A,-2.85
6,C11U A18C A29C C101A G110C,-7.19
7,C11U G39U,-1.37
8,C11U G60U U78C U116C,-2.11
9,C11U G128A,-2.45
10,C12A C53U U78A U81G,-2.32
11,C12A C53U,-0.724
12,C12A C15U G52U G63A C86U G117C,-5.35
13,C12A A18C G77C A121U,-0.381
14,C12A G44A C72G A100U,-2.22
15,C12A A18C U112C C124U,-0.619
16,C11U C34A U87A,-3.12
17,C11G C13A G117C U132A U134G,-2.05
18,C12A A37C,-1.93
19,C11U A18G G19C A43G G63U,-4.05
20,C11U A29G C53U,-2.33
21,C12A G17A A111U U116C,-6.09

row,Variant,polymerase ribozyme fitness (log ratio)
1,C11G G69C,-1.7
2,C11U C49U C101A,-2.29
3,C11G C13U U32C G65A G113C G120U,-6.75
4,C11U C12G C28U U32C C49A C56G,-2.91
5,C11G C86G,-1.7
6,C12A C86A,-0.926
7,C12A A46U C49U A95G C99U A111G U116A,-6.56
8,C12A A68G A84C,-4.19
9,C11G C64U C115U U130A,-1.38
10,C11G C12U G113A A118U,-3.33
11,C11G C28G G60A A68C U81A U106C G127C,-6.42
12,C11U U112A,1.19
13,C11U U112C,1.46
14,C12A C88U U109A C114A U133C,-6.51
15,C12A A75U A111C,0.286
16,C12A A24C C97U,-7.95
17,C11U C12A A41C C56G,-2.42
18,C11U G19A C53G U55A A91C,-2.36
19,C11G G52U C56G C102U A103C,-6.01
20,C11U C53U G110A U129A,-3.35
21,C11U G52U C70A,-1.84

row,Variant,polymerase ribozyme fitness (log ratio)
1,C11U G42C,-2.01
2,C12A C15A,-3.39
3,C12A C20G A83G C85U A95G,-5.21
4,C11U C22A C124U,-3.19
5,C11G C40A G48U C70U,-1.6
6,C11U C34A,-2.54
7,C11G C73U C80U,-0.636
8,C11U G122A,-1.12
9,C11U U129A,-2.36
10,C12A G48A U55C G57U U59G C85U,-3.61
11,C11U G113U,-2.7
12,C12A A27G C34G G61U A118C C123G,-8.42
13,C12A C64U U133G,-0.934
14,C11U A27U,-1.89
15,C12A G51U G71U U133C,-4.34
16,C11G U78C,0.168
17,C11G C56G,0.087
18,C11U G19A G61A U131G,-3.33
19,C12A G57U G71U,-0.629
20,C11U C53U C94G C123G,-1.5
21,C11U C49U,-1.29

row,Variant,polymerase ribozyme fitness (log ratio)
1,C11U C22A A37G A68G C72A U109A,-5.84
2,C11U G71A,-1.53
3,C11G C12G A46G G71U,-0.917
4,C12A C62U G128U,-3.03
5,C11G G42U G45U G51C G120A U134G,-4.64
6,C11U C22G C31A C72G C99U C123A,-5.82
7,C11U A27U G52C G61C,-4.18
8,C11G C88U U116C,-0.109
9,C12A G45U C56U G93A,-2.57
10,C11U C53A C97U,-1.37
11,C11U G44C C104U U116C,-3.59
12,C11G C72A C79U A90G C101G A121C U131A,0.276
13,C11U U21A A27G A105G,-4.61
14,C12A A37G U132A,-1.37
15,C11G G19A U38G,-2.63
16,C11G C12G C73U C123G U125A,-2.92
17,C11U C88G C114A U126A,-5.99
18,C12A A46U C114U,-3.89
19,C11U G69C,-1.87
20,C11U G69A,-2.2
21,C11U C15U,-2.2
